In experiment [1] the target is recombinant human desmoglein-1 (DSG-1), purified, full-length (human) (UniProt Q02413). Briefly: single-molecule force spectroscopy (AFM); DSG-1 tips against L. lactis SdrD^(+) in the presence of 1 mM EDTA (15 min incubation).
The target is the same in experiment [2]. Briefly: single-molecule force spectroscopy (AFM); DSG-1 tips against L. lactis SdrD^(+) after EDTA, with CaCl2 added to 10 mM (15 min incubation).
The target is the same in experiment [3]. Briefly: single-molecule force spectroscopy (AFM); AFM tips functionalized with DSG-1 against living L. lactis SdrD^(+) on a polystyrene dish; PBS, room temperature; approach and retraction 1 μm s^−1, applied force 250 pN, dwell time 0 s.
The target in experiment [4] is pPROX^∗ peptide (cysteine-bearing peptide based on the p_(PROX) sequence of DSG-1) (human). Description: single-molecule force spectroscopy (AFM); AFM tips carrying pPROX^∗ by a PEG27-maleimide linker against living L. lactis SdrD^(+); pulling speed 1 μm s^−1.
pPROX^∗ peptide (cysteine-bearing peptide based on the p_(PROX) sequence of DSG-1) (human), sequence (Q02413 other isoform, or with tags, fused parts or gaps): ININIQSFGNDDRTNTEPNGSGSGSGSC
The target of experiment [5] is recombinant human desmoglein-1 (DSG-1), purified, full-length (human) (UniProt Q02413). Briefly: dynamic force spectroscopy (AFM, SMFS); DSG-1 tips against L. lactis SdrD^(+); retraction speed 0.5, 1, 3, 5 and 10 μm s^−1; Bell-Evans fit; only adhesion forces of >1000 pN considered.
For experiment [6] the target is unchanged. Briefly: single-molecule force spectroscopy (AFM); AFM tips functionalized with DSG-1 against living S. aureus AD08.

Broadly, the koff is the rate constant with which the complex falls apart. With “serine-aspartate repeat protein D (SdrD) expressed on the surface of Lactococcus lactis MG1363 (pKS80::sdrD) (from UniProt Q2G0L4 36-1315) (natural protein)”, in experiment [1], the adhesion force with 1 mM EDTA turned out to be 2160 pN. In experiment [2], the adhesion force with 10 mM Ca^2+ came out at 2600 pN. Further, in experiment [3], the adhesion (rupture) force was determined as 2080 pN and the binding probability is 49%. In experiment [4], this substance returned an adhesion frequency of 33% and a rupture force of 1810 pN. In addition, the koff in experiment [5] was determined as 1.4e-07 s⁻¹.
As for “SdrD on the surface of Staphylococcus aureus AD08 (clinical isolate from an infected skin lesion of a patient with AD) (from UniProt Q2G0L4 36-1315) (natural protein)”, the rupture force (main peak) in experiment [6] stood at 1550 pN.
